Target: macrophage mannose receptor on murine macrophage cell line J774E (murine) (UniProt Q61830)
Assay: cell-based or functional assay

Row | Vmax for uptake in J774E cells | Substance
1 | 0.518 | Cerezyme (recombinantly produced glucocerebrosidase) (from UniProt P04062 40-536) (enzyme)
2 | 0.871 | pGC54: GCB-GGGG linker-Saposin C fusion protein (enzyme)

Reference: patent US20040009165A1
